Laboratory results published in IntAct's records for PubMed 23135401.

Assays:
pcd15_mouse Pcdh15 = pcd15_mouse Pcdh15 (UniProt Q99PJ1)
Cdh23, Q99PF4-1 [1] = target: Cdh23, Q99PF4-1
Cdh23, Q99PF4-1 [2] = target: Cdh23, Q99PF4-1; remark: listed apart in the source

Cdh23, Q99PF4-1, sequence (Q99PF4 whole entry): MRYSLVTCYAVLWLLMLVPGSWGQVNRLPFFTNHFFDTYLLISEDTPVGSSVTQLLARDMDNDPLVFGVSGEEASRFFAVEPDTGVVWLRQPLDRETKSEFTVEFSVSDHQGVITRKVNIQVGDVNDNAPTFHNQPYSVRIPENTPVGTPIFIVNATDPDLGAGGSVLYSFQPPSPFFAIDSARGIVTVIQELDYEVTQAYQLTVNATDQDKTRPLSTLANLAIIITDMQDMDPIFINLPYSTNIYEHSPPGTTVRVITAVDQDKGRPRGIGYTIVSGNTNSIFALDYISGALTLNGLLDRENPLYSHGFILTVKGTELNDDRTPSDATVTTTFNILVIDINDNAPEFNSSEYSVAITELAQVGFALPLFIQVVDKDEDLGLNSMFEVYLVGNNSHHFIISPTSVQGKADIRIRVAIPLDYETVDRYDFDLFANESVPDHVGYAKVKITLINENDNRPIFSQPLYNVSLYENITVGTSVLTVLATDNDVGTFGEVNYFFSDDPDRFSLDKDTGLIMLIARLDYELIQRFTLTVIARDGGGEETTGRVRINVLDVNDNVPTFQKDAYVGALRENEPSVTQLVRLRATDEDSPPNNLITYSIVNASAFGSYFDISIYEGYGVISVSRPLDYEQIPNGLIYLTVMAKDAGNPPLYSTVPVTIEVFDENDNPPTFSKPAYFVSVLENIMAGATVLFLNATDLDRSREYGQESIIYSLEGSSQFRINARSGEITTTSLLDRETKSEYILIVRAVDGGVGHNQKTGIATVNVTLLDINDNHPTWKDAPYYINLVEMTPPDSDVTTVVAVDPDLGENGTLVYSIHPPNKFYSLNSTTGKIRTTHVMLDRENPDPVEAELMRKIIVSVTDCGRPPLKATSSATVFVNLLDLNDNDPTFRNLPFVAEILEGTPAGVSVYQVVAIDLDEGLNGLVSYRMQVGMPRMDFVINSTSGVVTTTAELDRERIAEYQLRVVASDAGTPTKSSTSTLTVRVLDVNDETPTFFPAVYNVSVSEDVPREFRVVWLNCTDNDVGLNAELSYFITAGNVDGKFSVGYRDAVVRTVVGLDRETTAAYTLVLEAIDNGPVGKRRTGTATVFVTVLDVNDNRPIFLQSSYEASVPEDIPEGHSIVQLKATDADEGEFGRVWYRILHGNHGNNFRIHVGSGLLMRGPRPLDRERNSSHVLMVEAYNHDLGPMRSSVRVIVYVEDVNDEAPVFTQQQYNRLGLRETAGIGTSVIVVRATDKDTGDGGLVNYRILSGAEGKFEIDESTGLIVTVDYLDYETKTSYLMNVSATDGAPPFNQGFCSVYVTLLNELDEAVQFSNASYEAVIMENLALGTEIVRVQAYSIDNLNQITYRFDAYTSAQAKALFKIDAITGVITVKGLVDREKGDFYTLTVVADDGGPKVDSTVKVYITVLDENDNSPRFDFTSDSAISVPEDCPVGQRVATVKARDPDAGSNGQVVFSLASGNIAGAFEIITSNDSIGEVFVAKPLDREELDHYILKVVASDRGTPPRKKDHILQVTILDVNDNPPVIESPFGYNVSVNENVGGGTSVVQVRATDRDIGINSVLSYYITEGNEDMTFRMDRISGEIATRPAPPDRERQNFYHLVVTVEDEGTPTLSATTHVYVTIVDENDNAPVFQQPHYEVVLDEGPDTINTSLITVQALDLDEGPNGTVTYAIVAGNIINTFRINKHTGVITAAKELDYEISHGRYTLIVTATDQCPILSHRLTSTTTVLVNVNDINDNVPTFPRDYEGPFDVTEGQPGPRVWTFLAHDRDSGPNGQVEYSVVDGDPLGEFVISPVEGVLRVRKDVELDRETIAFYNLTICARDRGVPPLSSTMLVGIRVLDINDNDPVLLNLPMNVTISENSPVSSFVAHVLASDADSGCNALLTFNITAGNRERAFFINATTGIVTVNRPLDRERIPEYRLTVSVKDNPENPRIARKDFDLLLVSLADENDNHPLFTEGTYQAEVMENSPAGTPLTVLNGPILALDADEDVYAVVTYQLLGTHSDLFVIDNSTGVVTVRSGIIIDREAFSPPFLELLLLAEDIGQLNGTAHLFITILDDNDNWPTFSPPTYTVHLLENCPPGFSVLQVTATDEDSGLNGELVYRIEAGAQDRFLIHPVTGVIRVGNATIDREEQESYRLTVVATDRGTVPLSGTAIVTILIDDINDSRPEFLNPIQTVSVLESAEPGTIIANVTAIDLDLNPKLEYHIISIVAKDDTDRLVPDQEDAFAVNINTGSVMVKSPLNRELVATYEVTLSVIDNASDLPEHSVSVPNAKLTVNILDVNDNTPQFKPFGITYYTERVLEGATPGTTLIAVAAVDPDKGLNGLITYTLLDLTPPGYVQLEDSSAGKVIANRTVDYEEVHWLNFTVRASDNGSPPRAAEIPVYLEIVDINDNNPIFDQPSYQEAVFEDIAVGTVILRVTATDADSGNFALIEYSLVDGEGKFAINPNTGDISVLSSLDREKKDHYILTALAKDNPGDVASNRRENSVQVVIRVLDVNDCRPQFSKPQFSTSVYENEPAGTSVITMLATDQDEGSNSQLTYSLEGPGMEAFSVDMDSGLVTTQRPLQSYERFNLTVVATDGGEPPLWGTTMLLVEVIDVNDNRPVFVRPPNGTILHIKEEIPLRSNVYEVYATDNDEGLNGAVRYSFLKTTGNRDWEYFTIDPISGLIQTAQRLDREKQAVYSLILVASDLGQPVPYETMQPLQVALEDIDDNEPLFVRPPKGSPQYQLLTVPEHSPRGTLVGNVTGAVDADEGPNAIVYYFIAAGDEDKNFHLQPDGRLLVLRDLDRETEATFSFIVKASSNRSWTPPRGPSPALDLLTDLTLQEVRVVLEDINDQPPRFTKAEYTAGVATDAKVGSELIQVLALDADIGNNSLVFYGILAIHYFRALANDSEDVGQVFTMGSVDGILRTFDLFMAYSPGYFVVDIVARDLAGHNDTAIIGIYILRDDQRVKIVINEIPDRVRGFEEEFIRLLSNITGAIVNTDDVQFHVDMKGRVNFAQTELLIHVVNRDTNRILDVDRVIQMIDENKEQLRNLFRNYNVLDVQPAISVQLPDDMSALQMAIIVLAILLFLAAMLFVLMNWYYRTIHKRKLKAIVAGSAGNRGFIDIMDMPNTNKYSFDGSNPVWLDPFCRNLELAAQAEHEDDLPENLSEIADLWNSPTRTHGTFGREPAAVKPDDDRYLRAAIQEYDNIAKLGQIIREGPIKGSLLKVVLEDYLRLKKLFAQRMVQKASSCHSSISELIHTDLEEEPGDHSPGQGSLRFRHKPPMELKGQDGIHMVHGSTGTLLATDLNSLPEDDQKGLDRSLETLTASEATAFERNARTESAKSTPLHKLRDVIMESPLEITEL

Row | effect of a mutation on the interaction (pcd15_mouse Pcdh15) | effect of a mutation on the interaction (Cdh23, Q99PF4-1 [1]) | effect of a mutation on the interaction (Cdh23, Q99PF4-1 [2]) | Substance
1 | decreasing interaction strength |  |  | Cadherin-23 (Mus musculus), Q99PF4-1 D124G
2 | decreasing interaction strength |  |  | Cadherin-23 (Mus musculus), Q99PF4-1 L168G
3 |  | decreasing interaction strength |  | Protocadherin-15 (Mus musculus), Q99PJ1 I48A
4 |  | decreasing interaction strength | disrupting interaction strength | Protocadherin-15 (Mus musculus), Q99PJ1 R139G
